Experimental data from paper PMC8052502, “Enzyme kinetic and binding studies identify determinants of specificity for the immunomodulatory enzyme ScpA, a C5a inactivating bacterial protease” (Computational and Structural Biotechnology Journal, 2012).

Columns and labels:
[1] = biological target: recombinant ScpA, residues 31-1032 (active Streptococcal C5a peptidase) (Streptococcus pyogenes) (UniProt P15926)
[2] = biological target: recombinant human C5a des Arg (rhC5adR), N-ter hexa-histidine tagged (human); assay: SPR; His-tagged C5a peptide immobilised on NTA sensor chip (30-40 RU), ScpA_(S512A) flowed over; 25 °C; 10 mM Hepes-KOH pH 7.5, 150 mM NaCl, 0.005% Tween 20, 50 μM EDTA; 1:1 Langmuir model with drifting baseline
[3] = biological target: rhC5a_(K12A,K14A) (human); assay: as above
rhC5a_(K49A) (human) = assay: as above
rhC5a_(K4A,K5A) (human) = assay: as above
rhC5a_(R37A) (human) = assay: as above
rhC5a_(R40A) (human) = assay: as above
rhC5a_(R46A) (human) = assay: as above
[4] = biological target: rhC5a_(core), N-terminal cleavage product (PN) of rhC5a, residues 1-67 (human); assay: as above
[5] = biological target: T1, ScpA_(S512A), active site serine to alanine mutant of recombinant Streptococcal C5a peptidase ScpA, residues … (Streptococcus pyogenes, UniProt P15926 31-1032, S512A); assay: SPR; His-tagged rhC5a immobilised on NTA sensor chip, ScpA_(S512A) flowed over; 25 °C; Hepes buffer with 350 mM NaCl; 1:1 Langmuir model; details: both partners purified
T1 construct: mimics the form released from the cell surface by SpeB; catalytic residues D130, H193, S512; also called S512A active site mutant of ScpA; source: recombinant, from plasmid pGEX ScpA_((31-1032)) mutated with QuickChange II; purified
T1 sequence: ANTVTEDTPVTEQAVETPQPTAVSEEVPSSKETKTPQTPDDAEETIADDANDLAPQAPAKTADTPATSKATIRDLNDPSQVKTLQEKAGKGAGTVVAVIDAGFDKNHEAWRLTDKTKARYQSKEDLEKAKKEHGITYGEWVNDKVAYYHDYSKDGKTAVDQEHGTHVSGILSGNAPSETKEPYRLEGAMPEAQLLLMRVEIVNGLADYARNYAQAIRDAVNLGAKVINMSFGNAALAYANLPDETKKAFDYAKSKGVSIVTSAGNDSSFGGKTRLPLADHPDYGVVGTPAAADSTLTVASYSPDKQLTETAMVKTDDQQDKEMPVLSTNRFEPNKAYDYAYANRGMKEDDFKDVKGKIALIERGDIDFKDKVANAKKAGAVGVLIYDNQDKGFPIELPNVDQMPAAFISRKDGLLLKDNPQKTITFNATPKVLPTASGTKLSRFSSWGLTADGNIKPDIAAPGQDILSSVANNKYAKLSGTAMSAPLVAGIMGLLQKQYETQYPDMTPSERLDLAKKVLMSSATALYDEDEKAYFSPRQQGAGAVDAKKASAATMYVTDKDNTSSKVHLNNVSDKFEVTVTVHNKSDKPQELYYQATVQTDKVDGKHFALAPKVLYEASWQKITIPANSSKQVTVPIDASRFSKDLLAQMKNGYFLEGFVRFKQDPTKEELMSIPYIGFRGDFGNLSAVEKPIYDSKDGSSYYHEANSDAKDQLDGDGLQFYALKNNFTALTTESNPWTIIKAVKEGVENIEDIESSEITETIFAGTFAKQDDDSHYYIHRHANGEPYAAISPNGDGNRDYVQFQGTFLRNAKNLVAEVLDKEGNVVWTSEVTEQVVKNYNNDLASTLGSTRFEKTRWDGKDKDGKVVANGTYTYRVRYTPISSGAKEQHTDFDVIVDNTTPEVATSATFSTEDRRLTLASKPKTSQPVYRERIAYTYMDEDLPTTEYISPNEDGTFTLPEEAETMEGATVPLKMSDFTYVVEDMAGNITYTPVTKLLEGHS

[6] = biological target: T1, ScpA_(S512A), active site serine to …; assay: SPR; His-tagged rhC5a immobilised on NTA sensor chip, ScpA_(S512A) flowed over; 25 °C; Hepes buffer with 550 mM NaCl; 1:1 Langmuir model; details: both partners purified
[7] = biological target: T1, ScpA_(S512A), active site serine to …; assay: SPR; His-tagged rhC5a immobilised on NTA sensor chip, ScpA_(S512A) flowed over; 25 °C; Hepes buffer with 750 mM NaCl; 1:1 Langmuir model; details: both partners purified
[8] = biological target: T1, ScpA_(S512A), active site serine to …; assay: SPR; His-tagged rhC5a immobilised on NTA sensor chip, ScpA_(S512A) flowed over; 25 °C; Hepes buffer with 950 mM NaCl; 1:1 Langmuir model; details: both partners purified
[9] = biological target: T1, ScpA_(S512A), active site serine to …; assay: ITC; ScpA_(S512A) (18 μM) in the cell titrated with 170 μM rhC5a; 25 °C; 50 mM Hepes-KOH pH 7.5, 150 mM NaCl; one set of sites model; KD^ITC derived from KA; details: both partners purified
[10] = biological target: T1, ScpA_(S512A), active site serine to …; assay: SPR; His-tagged C5a peptide immobilised on NTA sensor chip (30-40 RU), ScpA_(S512A) flowed over; 25 °C; 10 mM Hepes-KOH pH 7.5, 150 mM NaCl, 0.005% Tween 20, 50 μM EDTA; 1:1 Langmuir model with drifting baseline; details: both partners purified
[11] = biological target: T1, ScpA_(S512A), active site serine to …; assay: SPR; competition in solution: 40 RU HT-rhC5a_(core) immobilised on NTA chip; ScpA_(S512A) (700 nM) pre-incubated with rhC5a-HT (0-2000 nM) 1 hr on ice in SPR running buffer, then injected; Req fitted by the method of Morelock et al. to give KD^Sol; details: both partners purified

Work on “doubly BODIPY labelled His-tagged rhC5aC75 (rhC5aC75-BODIPY) (natural protein)” yielded a Km of cleavage of rhC5aC75-BODIPY (16-500 nM) by 180 pM ScpA, fluorescence progress curves, 25 °C, PBS with 0.1% Tween 20 [1] of 185 nM.

B1: ScpA_(S512A), active site serine to alanine mutant of recombinant Streptococcal C5a peptidase ScpA, residues 31-1032 (enzyme)
chain: ANTVTEDTPVTEQAVETPQPTAVSEEVPSSKETKTPQTPDDAEETIADDANDLAPQAPAKTADTPATSKATIRDLNDPSQVKTLQEKAGKGAGTVVAVIDAGFDKNHEAWRLTDKTKARYQSKEDLEKAKKEHGITYGEWVNDKVAYYHDYSKDGKTAVDQEHGTHVSGILSGNAPSETKEPYRLEGAMPEAQLLLMRVEIVNGLADYARNYAQAIRDAVNLGAKVINMSFGNAALAYANLPDETKKAFDYAKSKGVSIVTSAGNDSSFGGKTRLPLADHPDYGVVGTPAAADSTLTVASYSPDKQLTETAMVKTDDQQDKEMPVLSTNRFEPNKAYDYAYANRGMKEDDFKDVKGKIALIERGDIDFKDKVANAKKAGAVGVLIYDNQDKGFPIELPNVDQMPAAFISRKDGLLLKDNPQKTITFNATPKVLPTASGTKLSRFSSWGLTADGNIKPDIAAPGQDILSSVANNKYAKLSGTAMSAPLVAGIMGLLQKQYETQYPDMTPSERLDLAKKVLMSSATALYDEDEKAYFSPRQQGAGAVDAKKASAATMYVTDKDNTSSKVHLNNVSDKFEVTVTVHNKSDKPQELYYQATVQTDKVDGKHFALAPKVLYEASWQKITIPANSSKQVTVPIDASRFSKDLLAQMKNGYFLEGFVRFKQDPTKEELMSIPYIGFRGDFGNLSAVEKPIYDSKDGSSYYHEANSDAKDQLDGDGLQFYALKNNFTALTTESNPWTIIKAVKEGVENIEDIESSEITETIFAGTFAKQDDDSHYYIHRHANGEPYAAISPNGDGNRDYVQFQGTFLRNAKNLVAEVLDKEGNVVWTSEVTEQVVKNYNNDLASTLGSTRFEKTRWDGKDKDGKVVANGTYTYRVRYTPISSGAKEQHTDFDVIVDNTTPEVATSATFSTEDRRLTLASKPKTSQPVYRERIAYTYMDEDLPTTEYISPNEDGTFTLPEEAETMEGATVPLKMSDFTYVVEDMAGNITYTPVTKLLEGHS
B1 was tested, and the Kd [2] was 191 nM, the koff [2] was 0.0118 s⁻¹ and the kon [2] was 61700 M⁻¹ s⁻¹. It also gave a Kd [3] of 25.6 nM, a koff [3] of 0.00405 s⁻¹ and a kon [3] of 158000 M⁻¹ s⁻¹. The Kd (rhC5a_(K49A) (human)) was 26 nM, the koff (rhC5a_(K49A) (human)) was 0.005 s⁻¹ and the kon (rhC5a_(K49A) (human)) was 195000 M⁻¹ s⁻¹. It also gave a Kd (rhC5a_(K4A,K5A) (human)) of 32.5 nM, a koff (rhC5a_(K4A,K5A) (human)) of 0.00583 s⁻¹ and a kon (rhC5a_(K4A,K5A) (human)) of 180000 M⁻¹ s⁻¹. The Kd (rhC5a_(R37A) (human)) was 217 nM, the koff (rhC5a_(R37A) (human)) was 0.0176 s⁻¹ and the kon (rhC5a_(R37A) (human)) was 81200 M⁻¹ s⁻¹. The Kd (rhC5a_(R40A) (human)) was 234 nM, the koff (rhC5a_(R40A) (human)) was 0.0205 s⁻¹ and the kon (rhC5a_(R40A) (human)) was 88000 M⁻¹ s⁻¹. For the same molecule, the Kd (rhC5a_(R46A) (human)) was 162 nM, the koff (rhC5a_(R46A) (human)) was 0.0178 s⁻¹ and the kon (rhC5a_(R46A) (human)) was 111000 M⁻¹ s⁻¹. For the same molecule, the Kd [4] was 240 nM, the koff [4] was 0.0085 s⁻¹ and the kon [4] was 35200 M⁻¹ s⁻¹.

B2: recombinant human C5a, N-ter hexa-histidine tagged (rhC5a) (natural protein, UniProt P01031 678-751, looked up)
chain: TLQKKIEEIAAKYKHSVVKKCCYDGACVNNDETCEQRAARISLGPRCIKAFTECCVVASQLRANISHKDMQLGR
modifications: β-mercaptoethanol added to C27 in the refolding process
notes: numbers count on: the mature C5a (1-74); His-tagged form immobilised on the NTA chip in SPR; also called full length rhC5a; not shown: His6, N-terminal, kept
With B2 the Kd [5] was 63.5 nM, the koff [5] was 0.00431 s⁻¹ and the kon [5] was 68500 M⁻¹ s⁻¹. The Kd [6] was 140 nM, the koff [6] was 0.0054 s⁻¹ and the kon [6] was 39200 M⁻¹ s⁻¹. The Kd [7] was 256 nM, the koff [7] was 0.00651 s⁻¹ and the kon [7] was 25600 M⁻¹ s⁻¹. For the same molecule, the Kd [8] was 466 nM, the koff [8] was 0.0091 s⁻¹ and the kon [8] was 19500 M⁻¹ s⁻¹. It also gave a Kd [9] of 30.8 nM, a dH [9] of -9.4 kcal/mol and a Kd [10] of 34 nM. For the same molecule, the koff [10] was 0.0044 s⁻¹ and the kon [10] was 131000 M⁻¹ s⁻¹.

B3: His-tagless form of rhC5a (rhC5a-HT) (natural protein, human, UniProt P01031 678-751, looked up)
chain: TLQKKIEEIAAKYKHSVVKKCCYDGACVNNDETCEQRAARISLGPRCIKAFTECCVVASQLRANISHKDMQLGR
modifications: β-mercaptoethanol added to C27 in the refolding process
notes: numbers count on: the mature C5a (1-74); also called rhC5a-HT(sol); tag-less form rhC5a; source: recombinant rhC5a (pProExHTb) treated with TEV protease (Sigma Merck) to remove the His tag; not shown: His6, N-terminal, cleaved
In the case of B3, the Kd [11] is reported as 11.1 nM.
